Test results taken from publication PMC10897159, “Structural insights into the activation mechanism of antimicrobial GBP1” (The EMBO Journal, 2024).

Assays:
[1] = molecular target: GBP1 M139E, non-farnesylated (human) (UniProt P32455); assay: SEC; analytical SEC (Superdex 200 5/150), 20 µM protein with 200 µM GDP, 300 µM AlCl3, 10 mM NaF (GDP•AlFx); 50 mM Tris-HCl pH 7.9, 150 mM NaCl, 5 mM MgCl2
[2] = molecular target: GBP1 Δ207-223, non-farnesylated (human) (UniProt P32455); assay: cross-linking; BS3 at 20-times molar excess, 20 µM protein, with 200 µM GDP, 300 µM AlCl3, 10 mM NaF (GDP•AlFx); 50 mM HEPES, 150 mM NaCl, 5 mM MgCl2; SDS-PAGE
[3] = molecular target: GBP1 M139R, non-farnesylated (human) (UniProt P32455); assay: SEC; analytical SEC (Superdex 200 5/150), 20 µM protein with 200 µM GDP, 300 µM AlCl3, 10 mM NaF (GDP•AlFx); 50 mM Tris-HCl pH 7.9, 150 mM NaCl, 5 mM MgCl2
[4] = molecular target: T1, human guanylate-binding protein 1 (GBP1), wild-type, non-farnesylated (human), P32455; assay: specific GTPase activity against protein concentration (HPLC), quadratic fit; apparent Kd of dimer formation; non-farnesylated GBP1, 1 mM GTP, 37 °C, 50 mM Tris-HCl pH 7.9, 150 mM NaCl, 5 mM MgCl2; dimer to monomers; settings: remark: other sources report otherwise
T1 chain: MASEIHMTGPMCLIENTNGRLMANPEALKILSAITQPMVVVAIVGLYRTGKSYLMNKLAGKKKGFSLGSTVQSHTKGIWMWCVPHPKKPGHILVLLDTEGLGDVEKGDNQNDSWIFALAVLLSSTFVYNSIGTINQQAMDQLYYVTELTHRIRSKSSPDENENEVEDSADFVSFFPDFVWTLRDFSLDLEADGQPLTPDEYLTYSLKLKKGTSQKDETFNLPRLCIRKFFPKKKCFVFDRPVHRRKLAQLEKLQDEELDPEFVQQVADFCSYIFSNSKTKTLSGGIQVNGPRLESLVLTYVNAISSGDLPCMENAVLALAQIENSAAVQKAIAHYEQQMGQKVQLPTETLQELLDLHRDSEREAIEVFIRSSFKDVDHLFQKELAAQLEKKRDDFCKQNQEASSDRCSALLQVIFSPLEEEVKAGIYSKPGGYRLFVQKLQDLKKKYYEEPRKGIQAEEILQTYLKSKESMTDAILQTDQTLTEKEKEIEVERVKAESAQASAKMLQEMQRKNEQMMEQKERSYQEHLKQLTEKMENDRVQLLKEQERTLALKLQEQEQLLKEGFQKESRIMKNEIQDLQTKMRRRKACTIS

[5] = molecular target: T1, human guanylate-binding protein 1 …; assay: cross-linking; BS3 at 20-times molar excess, 20 µM protein, with 200 µM GDP, 300 µM AlCl3, 10 mM NaF (GDP•AlFx); 50 mM HEPES, 150 mM NaCl, 5 mM MgCl2; SDS-PAGE; settings: remark: other sources report otherwise
[6] = molecular target: T2, human guanylate-binding protein 1 (GBP1), wild-type, farnesylated (human), P32455; assay: cryo-EM structure; single particle analysis of polymeric disks; 5 µM farnesylated GBP1 with GDP•AlFx for 20-30 min, no membranes; ~37 Å; settings: remark: other sources report otherwise
T2 chain: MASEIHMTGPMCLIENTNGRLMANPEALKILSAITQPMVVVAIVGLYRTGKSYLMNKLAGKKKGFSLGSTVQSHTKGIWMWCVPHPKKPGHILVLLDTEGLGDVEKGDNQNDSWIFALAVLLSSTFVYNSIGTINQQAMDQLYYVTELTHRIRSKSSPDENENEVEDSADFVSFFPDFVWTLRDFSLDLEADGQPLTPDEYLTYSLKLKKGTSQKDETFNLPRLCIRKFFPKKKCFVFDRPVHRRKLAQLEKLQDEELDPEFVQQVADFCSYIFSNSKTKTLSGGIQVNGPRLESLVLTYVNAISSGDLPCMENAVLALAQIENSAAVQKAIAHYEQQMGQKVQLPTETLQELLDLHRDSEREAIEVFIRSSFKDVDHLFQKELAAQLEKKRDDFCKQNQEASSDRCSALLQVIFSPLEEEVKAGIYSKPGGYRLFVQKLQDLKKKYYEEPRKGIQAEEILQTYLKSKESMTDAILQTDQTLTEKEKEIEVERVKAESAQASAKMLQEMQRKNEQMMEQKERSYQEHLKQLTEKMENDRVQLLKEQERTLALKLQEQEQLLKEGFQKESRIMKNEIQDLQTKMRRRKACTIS

[7] = molecular target: the molecule itself; assay: light scattering-based polymerization assay; 10 µM farnesylated GBP1, polymerization started with 1 mM GTP (for the pivot point mutants also with LPS added); 50 mM Tris-HCl pH 7.9, 150 mM NaCl, 5 mM MgCl2; absorbance at 350 nm over 40 min; dimers to polymers

GBP1 M139E, non-farnesylated (from UniProt P32455 1-592) (natural protein)
stoichiometry N [1]: 2

GBP1 Δ207-223, non-farnesylated (from UniProt P32455 1-592) (natural protein)
stoichiometry N [2]: 2

GBP1 M139R, non-farnesylated (from UniProt P32455 1-592) (natural protein)
stoichiometry N [3]: 2

B1: human guanylate-binding protein 1 (GBP1), wild-type, non-farnesylated, P32455 1-592 (natural protein)
chain: MASEIHMTGPMCLIENTNGRLMANPEALKILSAITQPMVVVAIVGLYRTGKSYLMNKLAGKKKGFSLGSTVQSHTKGIWMWCVPHPKKPGHILVLLDTEGLGDVEKGDNQNDSWIFALAVLLSSTFVYNSIGTINQQAMDQLYYVTELTHRIRSKSSPDENENEVEDSADFVSFFPDFVWTLRDFSLDLEADGQPLTPDEYLTYSLKLKKGTSQKDETFNLPRLCIRKFFPKKKCFVFDRPVHRRKLAQLEKLQDEELDPEFVQQVADFCSYIFSNSKTKTLSGGIQVNGPRLESLVLTYVNAISSGDLPCMENAVLALAQIENSAAVQKAIAHYEQQMGQKVQLPTETLQELLDLHRDSEREAIEVFIRSSFKDVDHLFQKELAAQLEKKRDDFCKQNQEASSDRCSALLQVIFSPLEEEVKAGIYSKPGGYRLFVQKLQDLKKKYYEEPRKGIQAEEILQTYLKSKESMTDAILQTDQTLTEKEKEIEVERVKAESAQASAKMLQEMQRKNEQMMEQKERSYQEHLKQLTEKMENDRVQLLKEQERTLALKLQEQEQLLKEGFQKESRIMKNEIQDLQTKMRRRKACTIS
Kd [4]: 1.9 µM | stoichiometry N [5]: 2

B2: human guanylate-binding protein 1 (GBP1), wild-type, farnesylated, P32455 1-592 (natural protein)
chain: MASEIHMTGPMCLIENTNGRLMANPEALKILSAITQPMVVVAIVGLYRTGKSYLMNKLAGKKKGFSLGSTVQSHTKGIWMWCVPHPKKPGHILVLLDTEGLGDVEKGDNQNDSWIFALAVLLSSTFVYNSIGTINQQAMDQLYYVTELTHRIRSKSSPDENENEVEDSADFVSFFPDFVWTLRDFSLDLEADGQPLTPDEYLTYSLKLKKGTSQKDETFNLPRLCIRKFFPKKKCFVFDRPVHRRKLAQLEKLQDEELDPEFVQQVADFCSYIFSNSKTKTLSGGIQVNGPRLESLVLTYVNAISSGDLPCMENAVLALAQIENSAAVQKAIAHYEQQMGQKVQLPTETLQELLDLHRDSEREAIEVFIRSSFKDVDHLFQKELAAQLEKKRDDFCKQNQEASSDRCSALLQVIFSPLEEEVKAGIYSKPGGYRLFVQKLQDLKKKYYEEPRKGIQAEEILQTYLKSKESMTDAILQTDQTLTEKEKEIEVERVKAESAQASAKMLQEMQRKNEQMMEQKERSYQEHLKQLTEKMENDRVQLLKEQERTLALKLQEQEQLLKEGFQKESRIMKNEIQDLQTKMRRRKACTIS
modifications: here or on the partner: farnesyl moiety at the C-terminal CaaX box motif; farnesyl moiety at the C-terminal CaaX box motif
subunits (dimeric building blocks) in a planar polymeric disk [6]: 30 subunits

B3: GBP1 D199K, farnesylated (natural protein, human, UniProt P32455 1-592, looked up)
chain: MASEIHMTGPMCLIENTNGRLMANPEALKILSAITQPMVVVAIVGLYRTGKSYLMNKLAGKKKGFSLGSTVQSHTKGIWMWCVPHPKKPGHILVLLDTEGLGDVEKGDNQNDSWIFALAVLLSSTFVYNSIGTINQQAMDQLYYVTELTHRIRSKSSPDENENEVEDSADFVSFFPDFVWTLRDFSLDLEADGQPLTPKEYLTYSLKLKKGTSQKDETFNLPRLCIRKFFPKKKCFVFDRPVHRRKLAQLEKLQDEELDPEFVQQVADFCSYIFSNSKTKTLSGGIQVNGPRLESLVLTYVNAISSGDLPCMENAVLALAQIENSAAVQKAIAHYEQQMGQKVQLPTETLQELLDLHRDSEREAIEVFIRSSFKDVDHLFQKELAAQLEKKRDDFCKQNQEASSDRCSALLQVIFSPLEEEVKAGIYSKPGGYRLFVQKLQDLKKKYYEEPRKGIQAEEILQTYLKSKESMTDAILQTDQTLTEKEKEIEVERVKAESAQASAKMLQEMQRKNEQMMEQKERSYQEHLKQLTEKMENDRVQLLKEQERTLALKLQEQEQLLKEGFQKESRIMKNEIQDLQTKMRRRKACTIS
modifications: farnesyl moiety at the C-terminal CaaX box motif
notes: GBP1, human, full-length construct with D199K in helix α4; also called pivot point mutant
binding result [7]: binds
